Laboratory results reported in patent publication US20050208103A1, “Targeted transscleral controlled release drug delivery to the retina and choroid” (priority 1999, published 2005).

Key:
[1] = type: in vitro ADME, rabbit; details: not told
Protocol: Dutch-belted rabbits (Pine Acres Rabbitry, Vermont, Mass.), each weighing 2-3 kg, were anesthetized with intramuscular 40 mg/kg ketamine (Abbott, N. Chicago, Ill.) and 10 mg/kg xylazine (Bayer, Shawnee Mission, Kans.). Scleral thickness was measured using a RK-5000 ultrasound pachymeter (KMI Surgical Products, West Chester, Pa.). The eyes were enucleated immediately […] sacrifice and immersed in Unisol (Alcon, Ft. Worth, Tex.) for 10 minutes or less. The adherent muscles were excised and episcleral tissue was removed with a sterile gauze sponge. Areas free of nerve and vessel emissaries were used to obtain 7×12 mm slices of sclera under microscopic caliper guidance. Each piece of sclera was used on the day of isolation.
A 5×10 mm window, 2 mm from the bottom, was created on one face of a spectrophotometry polystyrene cuvette (Sigma, St. Louis, Mo.) using a Bridgeport vertical milling machine (Bridgeport, Bridgeport, Conn.), and a piece of sclera was blotted dry and placed over this window without stretching so as not to induce asymmetric stresses. A small amount of cyanoacrylate tissue adhesive (Ellman International, Hewlett, N.Y.) was applied to the entire boundary of the tissue rim to seal its cut surface to the cuvette and prevent leakage around the sclera, and a second identical cuvette was aligned with the first cuvette and glued in place over the tissue. After the glue polymerized, within 3 to 4 minutes, the cuvette facing the “orbital” surface of the sclera was filled with Unisol. The apparatus was discarded if leakage into the “uveal” chamber was observed. Unisol was replaced with diffusion medium (see below) and the apparatus was incubated at 37° C. in 5% CO2 atmosphere for 1 hour to restore normal hydration and temperature.
Hanks' balanced salt solution without phenol red, containing 1% glutamine-penicillin and streptomycin, tetracycline (48 μg/ml), and aprotinin (1.5 μg/ml) (all from Sigma), was used as the diffusion medium. Tetracycline and aprotinin were excluded from the medium for certain experiments with FITC-BSA to evaluate the effect of these proteolysis inhibitors on scleral permeability. The pH of all solutions ranged from 7.41 to 7.45.
Fluorescein isothiocyanate (FITC) conjugated dextrans ranging in molecular weight from 4 kDa to 150 kDa, FITC-bovine serum albumin (BSA), FITC-rabbit IgG (all from Sigma), rhodamine-conjugated dextran of molecular weight 70 kDa (Molecular Probes, Eugene, Oreg.), and sodium fluorescein (Akorn, Abita Springs, La.) were studied. At least 5 experiments were performed on each compound. […] Samples were protected from light at all times before fluorescence measurements. […]

[2] = Stokes-Einstein radius; cited from earlier work
[3] = Protein precipitation with trichloroacetic acid to test FITC linkage; set-up: species or system rabbit; details: supernatant fluorescence

Compound | Permeability coefficient [1] | Permeability coefficient (mean ± sd) [1] | Molecular radius [2] | dissociation of the FITC conjugate after diffusion through sclera [3]
O=C([O-])c1ccccc1-c1c2ccc(=O)cc-2oc2cc([O-])ccc12.[Na+].[Na+] [Sodium fluorescein, sodium fluorescein] | 76.3±24.1 ×10^−6 cm/s | 84.5±16.1 ×10^−6 cm/s | 0.5 nm | –
FITC-BSA: Fluorescein isothiocyanate conjugated bovine serum albumin (Sigma) | 5.21±1.85 ×10^−6 cm/s | 5.49±2.12 ×10^−6 cm/s | 3.62 nm | no significant dissociation
